Measured values from paper PMC1405818.

Key:
LEDGF/p75 wild type [1] = target: T1, LEDGF/p75 wild type (human, UniProt O75475 1-530); experiment: SPR
LEDGF/p75 93-226 = LEDGF/p75 93-226 (human, UniProt O75475 93-226); experiment: EMSA
LEDGF/p75 wild type [2] = target: T1, LEDGF/p75 wild type; experiment: EMSA
[3] = target: LEDGF/p75 347-530 (IBD fragment) (human, UniProt O75475 347-530); experiment: EMSA
[4] = target: LEDGF/p75 1-116 (PWWP domain) (human, UniProt O75475 1-116); experiment: EMSA
LEDGF/p75 wild type [5] = target: T1, LEDGF/p75 wild type; experiment: EMSA; remark: listed apart in the source
LEDGF/p75 wild type [6] = target: T1, LEDGF/p75 wild type; experiment: SPR; remark: listed apart in the source
MutL3 = MutL3 (human, UniProt O75475 1-530, R180A;G181A;R182A;R194A;G195A;R196A); experiment: SPR
MutL4 = MutL4 (human, UniProt O75475 1-530, R180A;G181A;R182A); experiment: SPR
MutL5 = MutL5 (human, UniProt O75475 1-530, R194A;G195A;R196A); experiment: SPR
MutL5, sequence (O75475 whole entry R194A/G195A/R196A): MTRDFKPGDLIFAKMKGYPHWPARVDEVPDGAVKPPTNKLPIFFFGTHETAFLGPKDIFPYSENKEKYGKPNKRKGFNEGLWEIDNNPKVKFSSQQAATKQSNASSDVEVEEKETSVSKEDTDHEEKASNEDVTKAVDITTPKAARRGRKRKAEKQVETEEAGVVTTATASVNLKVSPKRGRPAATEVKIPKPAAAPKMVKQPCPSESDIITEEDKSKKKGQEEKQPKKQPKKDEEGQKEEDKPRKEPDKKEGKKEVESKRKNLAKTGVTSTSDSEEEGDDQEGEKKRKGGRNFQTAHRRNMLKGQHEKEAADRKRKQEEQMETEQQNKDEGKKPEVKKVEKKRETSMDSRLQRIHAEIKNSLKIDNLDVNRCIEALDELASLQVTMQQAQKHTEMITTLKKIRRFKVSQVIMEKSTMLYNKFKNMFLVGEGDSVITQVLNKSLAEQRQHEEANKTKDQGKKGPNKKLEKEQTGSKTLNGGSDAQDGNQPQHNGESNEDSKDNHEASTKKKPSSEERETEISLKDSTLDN

T1 sequence (O75475 whole entry): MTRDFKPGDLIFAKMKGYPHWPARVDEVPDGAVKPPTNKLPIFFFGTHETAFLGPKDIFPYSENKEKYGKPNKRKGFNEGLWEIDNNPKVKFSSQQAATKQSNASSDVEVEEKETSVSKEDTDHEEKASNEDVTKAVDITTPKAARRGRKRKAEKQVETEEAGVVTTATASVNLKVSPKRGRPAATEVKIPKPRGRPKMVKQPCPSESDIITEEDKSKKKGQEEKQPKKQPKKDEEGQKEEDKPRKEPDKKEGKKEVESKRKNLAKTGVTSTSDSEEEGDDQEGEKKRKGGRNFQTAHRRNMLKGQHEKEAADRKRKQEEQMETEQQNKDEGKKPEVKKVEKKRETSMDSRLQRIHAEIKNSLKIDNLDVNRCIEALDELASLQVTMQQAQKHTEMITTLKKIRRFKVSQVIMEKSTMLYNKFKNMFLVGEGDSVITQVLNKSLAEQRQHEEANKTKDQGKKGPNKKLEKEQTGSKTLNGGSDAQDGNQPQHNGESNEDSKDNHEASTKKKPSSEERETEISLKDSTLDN
LEDGF/p75 93-226, sequence (O75475 93-226): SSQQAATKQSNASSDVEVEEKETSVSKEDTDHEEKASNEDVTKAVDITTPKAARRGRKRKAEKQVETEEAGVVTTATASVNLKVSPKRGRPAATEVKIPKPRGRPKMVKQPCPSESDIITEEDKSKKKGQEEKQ
LEDGF/p75 347-530 (IBD fragment), sequence (O75475 347-530): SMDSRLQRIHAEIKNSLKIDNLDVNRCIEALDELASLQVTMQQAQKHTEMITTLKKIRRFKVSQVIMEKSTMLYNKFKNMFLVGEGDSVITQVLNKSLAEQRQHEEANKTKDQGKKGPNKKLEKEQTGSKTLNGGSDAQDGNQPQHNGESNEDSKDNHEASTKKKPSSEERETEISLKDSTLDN
LEDGF/p75 1-116 (PWWP domain), sequence (O75475 1-116): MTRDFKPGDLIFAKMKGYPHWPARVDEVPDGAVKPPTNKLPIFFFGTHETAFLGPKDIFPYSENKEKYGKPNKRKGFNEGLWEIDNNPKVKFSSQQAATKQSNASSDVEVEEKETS
MutL3, sequence (O75475 whole entry R180A/G181A/R182A/R194A/G195A/R196A): as the sequence (O75475 whole entry R194A/G195A/R196A) above, with R180A, G181A, R182A counted along it
MutL4, sequence (O75475 whole entry R180A/G181A/R182A): as the sequence (O75475 whole entry R194A/G195A/R196A) above, with R180A, G181A, R182A, A194R, A195G, A196R counted along it

B1: HSE SPR duplex (AE2019/AE1198) (dsDNA)
DNA 1: GATTTAACGAGAGAAGGTTCCAGA
DNA 2: TCTGGAACCTTCTCTCGTTAA
LEDGF/p75 wild type [1]
  binding result: binds

B2: HSE EMSA duplex (AE1197/AE1198) (dsDNA)
DNA 1: TTAACGAGAGAAGGTTCCAGA
DNA 2: TCTGGAACCTTCTCTCGTTAA
LEDGF/p75 93-226
  binding result: binds
LEDGF/p75 wild type [2]
  binding result: binds

B3: Mut1 EMSA duplex (AE1199/AE2000) (dsDNA)
DNA 1: TTAACTAAATAAATTTTAAAA
DNA 2: TTTTAAAATTTATTTAGTTAA
[3]
  binding result: no binding
[4]
  binding result: no binding
LEDGF/p75 wild type [5]
  binding result: binds

B4: Mut2 SPR duplex (AE2043/AE2002) (dsDNA)
DNA 1: GATTTAACGAGATAATTTTACAGA
DNA 2: TCTGTAAAATTATCTCGTTAA
LEDGF/p75 wild type [1]
  binding result: binds

B5: Mut2 EMSA duplex (AE2001/AE2002) (dsDNA)
DNA 1: TTAACGAGATAATTTTACAGA
DNA 2: TCTGTAAAATTATCTCGTTAA
LEDGF/p75 93-226
  binding result: binds
LEDGF/p75 wild type [2]
  binding result: binds

B6: Mut1 SPR duplex (AE2042/AE2000) (dsDNA)
DNA 1: GATTTAACTAAATAAATTTTAAAA
DNA 2: TTTTAAAATTTATTTAGTTAA
LEDGF/p75 wild type [6]
  binding signal: 100 % of WT stably bound
MutL3
  binding signal: ~7 % of WT stably bound
MutL4
  binding signal: ~45 % of WT stably bound
MutL5
  binding signal: ~13 % of WT stably bound
